US20170369523A1, “TEMPLATE-FIXED BETA-HAIRPIN PEPTIDOMIMETICS THAT ARE LIGANDS FOR G-PROTEIN-COUPLED RECEPTORS (GPCRS) AND ARE MODULATORS OF TRANSCRIPTION FACTORS AND COACTIVATORS” (POLYPHOR AG, priority 2008, published 2017)
Numbered stars: 1 amine (or outer) side, 2 acyl side, 3 side chain; on linkers, the order of the positions; unused ones are H or OH. Square brackets hold non-standard residues; d marks the D form. Pro(4S-SH) = O=C([C@@H]1C[C@H](S[*:3])CN1[*:1])[*:2]; Trp(6-Cl) = N[C@@H](Cc1c[nH]c2cc(Cl)ccc12)C(=O)O; Oic = O=C(O)[C@@H]1C[C@@H]2CCCC[C@@H]2N1; Gly(octyl) = CCCCCCCC[C@H](N)C(=O)O; Cha = N[C@@H](CC1CCCCC1)C(=O)O

T1: NCoA-1 (UniProt Q15788 257-385, limits assumed)
T1 construct: also called SRC-1
T1 sequence (looked up): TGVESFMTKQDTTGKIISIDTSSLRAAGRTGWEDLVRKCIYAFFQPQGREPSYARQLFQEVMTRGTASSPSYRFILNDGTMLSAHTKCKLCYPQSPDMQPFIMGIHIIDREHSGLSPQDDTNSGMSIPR


Molecular target: T1, NCoA-1
Assay: competition fluorescence polarization; displacement of FluoSTAT6 from NCoA-1
Method: The mixtures were shaken thoroughly. Fluorescence polarization was measured on a SPECTRAmax M5 spectrometer (Molecular device) following 5-30 min incubation at room temperature. FluoSTAT6 was excited at 490 nm and emission polarization was detected at 525 nm. 40 intensity measurements were collected for each well, 20 at horizontal position of the dynamic polarizer, 20 at parallel position. As the fraction of FluoSTAT6 bound to NCoA-1 is correlated to the fluorescence polarization (FP), after normalization, the fraction of bound FluoSTAT6 (B) was determined, and the KD was calculated according to B=[(1+P/R+KD/R)−((1+P/R+KD/R)²−4P/R)^{0.5}]/2, wherein P is the total probe concentration, R the total protein concentration and KD the dissociation constant (M. H. Roehrl, J. Y. Wang, G. Wagner, Biochemistry 2004, 3, 16056).
To determine the Kᵢ values of potential inhibitors of the STAT6/NCoA-1 interaction (competition fluorescence polarization) the compounds (dilution series from 0 to 100 μM final concentration) dissolved in HEPES buffer (10 mM HEPES, 150 mM NaCl, 3.4 mM EDTA, 0.1% BSA) were dispensed in a black 96 well plate (Greiner) and FluoSTAT6 (200 nM final concentration) in HEPES buffer was added. The mixture was completed by a HEPES buffer solution of NCoA-1 (1 μM final concentration) and processed as described above. STAT6Y (C-terminal tyrosine extended STAT6 794-814 peptide) was used as a positive control. As the total fluorescence intensity of FluoSTAT6 remains similar for all samples, the fraction of peptide bound to NCoA-1 is correlated to the fluorescence polarization.
Following normalization data were fitted with IGORpro Software® (WaveMetrics, Lake Oswego, Oreg., USA) to a sigmoid equation to determine IC₅₀ values.

| Binder | Ki [µM] |
| --- | --- |
| cyclo(FE[Trp(6-Cl)]LAWEF[dP]P) (SMILES CC(C)C[C@@H]1NC(=O)[C@H](Cc2c[nH]c3cc(Cl)ccc23)NC(=O)[C@H](CCC(=O)O)NC(=O)[C@H](Cc2ccccc2)NC(=O)[C@@H]2CCCN2C(=O)[C@H]2CCCN2C(=O)[C@H](Cc2ccccc2)NC(=O)[C@H](CCC(=O)O)NC(=O)[C@H](Cc2c[nH]c3ccccc23)NC(=O)[C@H](C)NC1=O, cyclo(-P1..P8-template-)) [Ex. 1] | 0.7 |
| cyclo(FE[Trp(6-Cl)]LA[Gly(octyl)]EF[dP]P) (SMILES CCCCCCCC[C@@H]1NC(=O)[C@H](C)NC(=O)[C@H](CC(C)C)NC(=O)[C@H](Cc2c[nH]c3cc(Cl)ccc23)NC(=O)[C@H](CCC(=O)O)NC(=O)[C@H](Cc2ccccc2)NC(=O)[C@@H]2CCCN2C(=O)[C@H]2CCCN2C(=O)[C@H](Cc2ccccc2)NC(=O)[C@H](CCC(=O)O)NC1=O, cyclo(-P1..P8-template-)) [Ex. 6] | 3.6 |
| cyclo([Cha]EWLAWE[Cha][dP]P) (SMILES CC(C)C[C@@H]1NC(=O)[C@H](Cc2c[nH]c3ccccc23)NC(=O)[C@H](CCC(=O)O)NC(=O)[C@H](CC2CCCCC2)NC(=O)[C@@H]2CCCN2C(=O)[C@H]2CCCN2C(=O)[C@H](CC2CCCCC2)NC(=O)[C@H](CCC(=O)O)NC(=O)[C@H](Cc2c[nH]c3ccccc23)NC(=O)[C@H](C)NC1=O, cyclo(-P1..P8-template-)) [Ex. 26] | 7.7 |

The remaining binders from weak to strong by Ki, led by results:

| Ki [µM] | Binder |
| --- | --- |
| 15 | cyclo(FEWL[dA]WEF[dP]P) (SMILES CC(C)C[C@@H]1NC(=O)[C@H](Cc2c[nH]c3ccccc23)NC(=O)[C@H](CCC(=O)O)NC(=O)[C@H](Cc2ccccc2)NC(=O)[C@@H]2CCCN2C(=O)[C@H]2CCCN2C(=O)[C@H](Cc2ccccc2)NC(=O)[C@H](CCC(=O)O)NC(=O)[C@H](Cc2c[nH]c3ccccc23)NC(=O)[C@@H](C)NC1=O, cyclo(-P1..P8-template-)) [Ex. 4] |
| 6.2 | cyclo(FEWLAWEW[dP][Oic]) (SMILES CC(C)C[C@@H]1NC(=O)[C@H](Cc2c[nH]c3ccccc23)NC(=O)[C@H](CCC(=O)O)NC(=O)[C@H](Cc2ccccc2)NC(=O)[C@@H]2C[C@@H]3CCCC[C@@H]3N2C(=O)[C@H]2CCCN2C(=O)[C@H](Cc2c[nH]c3ccccc23)NC(=O)[C@H](CCC(=O)O)NC(=O)[C@H](Cc2c[nH]c3ccccc23)NC(=O)[C@H](C)NC1=O, cyclo(-P1..P8-template-)) [Ex. 3] |
| 6 | cyclo([Cha]EWLAWEF[dP]P) (SMILES CC(C)C[C@@H]1NC(=O)[C@H](Cc2c[nH]c3ccccc23)NC(=O)[C@H](CCC(=O)O)NC(=O)[C@H](CC2CCCCC2)NC(=O)[C@@H]2CCCN2C(=O)[C@H]2CCCN2C(=O)[C@H](Cc2ccccc2)NC(=O)[C@H](CCC(=O)O)NC(=O)[C@H](Cc2c[nH]c3ccccc23)NC(=O)[C@H](C)NC1=O, cyclo(-P1..P8-template-)) [Ex. 25] |
| 3.8 | cyclo(FT[Trp(6-Cl)]LAWEF[dP][Pro(4S-SH)]) (SMILES CC(C)C[C@@H]1NC(=O)[C@H](Cc2c[nH]c3cc(Cl)ccc23)NC(=O)[C@H]([C@@H](C)O)NC(=O)[C@H](Cc2ccccc2)NC(=O)[C@@H]2C[C@H](S)CN2C(=O)[C@H]2CCCN2C(=O)[C@H](Cc2ccccc2)NC(=O)[C@H](CCC(=O)O)NC(=O)[C@H](Cc2c[nH]c3ccccc23)NC(=O)[C@H](C)NC1=O, cyclo(-P1..P8-template-)) [Ex. 5] |
